We go through one molecule from article PMC7855493 (Molecular cell, 2020).

This experiment deals with T1, yeast mitochondrial RNA polymerase ΔN100 (y-mtRNAP ΔN100) (S. cerevisiae, UniProt P13433 101-1351).
T1 sequence (looked up): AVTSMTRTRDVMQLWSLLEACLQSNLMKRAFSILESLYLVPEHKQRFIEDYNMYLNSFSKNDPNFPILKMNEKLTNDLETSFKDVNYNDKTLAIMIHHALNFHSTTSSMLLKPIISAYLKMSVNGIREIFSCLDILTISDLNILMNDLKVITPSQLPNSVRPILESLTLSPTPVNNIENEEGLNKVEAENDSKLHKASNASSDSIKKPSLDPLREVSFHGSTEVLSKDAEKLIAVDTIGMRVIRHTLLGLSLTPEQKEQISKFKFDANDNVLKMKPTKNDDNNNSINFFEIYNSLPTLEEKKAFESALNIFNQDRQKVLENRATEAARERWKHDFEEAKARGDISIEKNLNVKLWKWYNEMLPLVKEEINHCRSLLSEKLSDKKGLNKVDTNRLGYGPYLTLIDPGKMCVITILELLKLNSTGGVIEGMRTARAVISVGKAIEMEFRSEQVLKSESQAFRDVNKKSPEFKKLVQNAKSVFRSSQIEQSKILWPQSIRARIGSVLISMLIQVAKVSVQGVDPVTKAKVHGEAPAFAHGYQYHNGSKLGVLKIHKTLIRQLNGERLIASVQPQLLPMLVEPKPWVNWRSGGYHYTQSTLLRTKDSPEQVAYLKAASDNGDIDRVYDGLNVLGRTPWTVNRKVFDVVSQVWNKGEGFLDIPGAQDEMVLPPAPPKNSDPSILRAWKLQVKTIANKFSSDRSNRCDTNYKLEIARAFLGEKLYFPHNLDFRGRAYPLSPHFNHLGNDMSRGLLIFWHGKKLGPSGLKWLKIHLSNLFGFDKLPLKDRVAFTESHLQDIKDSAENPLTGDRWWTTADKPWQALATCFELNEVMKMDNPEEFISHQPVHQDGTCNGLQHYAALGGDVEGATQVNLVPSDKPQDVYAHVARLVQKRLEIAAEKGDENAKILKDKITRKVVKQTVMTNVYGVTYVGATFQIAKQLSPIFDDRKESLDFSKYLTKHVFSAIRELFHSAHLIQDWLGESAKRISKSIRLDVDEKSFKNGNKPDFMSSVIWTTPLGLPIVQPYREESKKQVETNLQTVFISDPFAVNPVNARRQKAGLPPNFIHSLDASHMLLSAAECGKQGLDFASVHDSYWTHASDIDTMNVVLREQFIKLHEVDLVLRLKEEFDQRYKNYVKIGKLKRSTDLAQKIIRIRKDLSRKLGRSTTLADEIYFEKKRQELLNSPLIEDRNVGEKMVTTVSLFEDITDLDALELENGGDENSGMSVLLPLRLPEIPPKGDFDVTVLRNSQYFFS
The experiment in a line: cryo-EM structure.

B1: MTF1 (yeast mitochondrial transcription factor), wild type (natural protein, S. cerevisiae)
chain: SVPIPGIKDISKLKFFYGFKYLWNPTVYNKIFDKLDLTKTYKHPEELKVLDLYPGVGIQSAIFYNKYCPRQYSLLEKRSSLYKFLNAKFEGSPLQILKRDPYDWSTYSNLIDEERIFVPEVQSSDHINDKFLTVANVTGEGSEGLIMQWLSCIGNKNWLYRFGKVKMLLWMPSTTARKLLARPGMHSRSKCSVVREAFTDTKLIAISDANELKGFDSQCIEEWDPILFSAAEIWPTKGKPIALVEMDPIDFDFDVDNWDYVTRHLMILKRTPLNTVMDSLGHGGQQYFNSRITDKDLLKKCPIDLTNDEFIYLTKLFMEWPFKPDILMDFVDMYQTEHSG
With B1, the binding result is on record as “binds”.
